Reference: patent publication US20210253725A1 (BIONTECH, published 2021)

T1: CD27 expressed on the cell surface (HT1080_CD27 cells) (human, UniProt P26842 20-260)
T1 sequence (looked up): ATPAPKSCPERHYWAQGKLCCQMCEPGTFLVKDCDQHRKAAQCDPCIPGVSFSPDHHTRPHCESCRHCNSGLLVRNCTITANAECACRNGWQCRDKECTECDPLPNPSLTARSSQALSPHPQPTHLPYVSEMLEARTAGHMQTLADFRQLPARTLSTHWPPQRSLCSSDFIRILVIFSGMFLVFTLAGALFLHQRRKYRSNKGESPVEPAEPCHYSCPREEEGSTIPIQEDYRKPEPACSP

T2: CD27 protein (His-tagged, Sino Biological Inc. 10039-H08B1) (human, UniProt P26842 20-192)
T2 construct: bought; coated onto ELISA plates; also called human CD27; recombinant protein; not shown: His tag
T2 sequence (looked up): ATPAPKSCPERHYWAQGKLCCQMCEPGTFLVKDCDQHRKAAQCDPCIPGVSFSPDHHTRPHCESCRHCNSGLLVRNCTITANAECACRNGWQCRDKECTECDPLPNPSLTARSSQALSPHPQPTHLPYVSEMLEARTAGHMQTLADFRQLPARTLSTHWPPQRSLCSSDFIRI

B1: P018.S.10.A.B06 (antibody, V domains shown)
VH: QSVEESGGRLVTPGTPLTLTCTVSGFSLSSSHMCWVRQAPGKGLEWIGVINIGDIAYYASWAKGRFTISKTSTTVDLKMTSLTAADTATYFCARENAYGTGWDFDLWGQGTLVTVSS
VL: AYDMTQTPASVEVAVGGTVTIKCQASESIRNALAWYQQKPGQPPKQLIYSASTLASGVPSRFKGSGSGTEFTLTISGVQSDDAATYYCQQGFSLRNVDNAFGGGTEVVVK
notes: V regions on human Ig constant parts; also called AB27_169
B2: P018.S.07.A.H05 (antibody, V domains shown)
VH: QSLEESGGRLVTPGTPLTLTCTASGFSLNSYYINWVRQAPGKGLEWIGFINGYDNTWYASWAKGRFTISRTSTTVDLRITSPTTEDTATYFCARDPGGASGTGRLDLWGQGTLVTVSS
VL: DIVMTQTPASVSAAVGGTVTINCQASQSISTALAWYQQKPGQRPKLLIYDASKLASGVPSRFKGNGSGTEFTLTISDLESADAATYYCQCTYYDAYDVGAFGGGTEVVVN
notes: V regions on human Ig constant parts; also called AB27_133
B3: P018.S.07.A.E03 (antibody, V domains shown)
VH: QSLEESGGRLVTPGTPLTLTCTVSGIDLSSYAMGWVRQAPGKGLELIGLIYASDRTHYATWAKGRFTISKSSTTVDLKATSLTTEDTATYFCGRYGRGSGGYYYGMDLWGPGTLVTVSS
VL: DVVMTQTPASVEAAVGGTVTIKCQASQSGDNYLSWYQQKSGQPPKLLIYLASTLASGVPSRFRGSRSGTEYTLTISDLESADAATYYCQNYCAGSGVCVGVAFGGGTEVVVK
notes: V regions on human Ig constant parts; also called AB27_125
B4: P018.S.06.A.D04 (antibody, V domains shown)
VH: QSLEESGGRLVKPDETLTLTCTVSGFDLSSYAVVWVRQAPGKGLEWIGYIYGGSGSTWYASWAKGRFTISKTSSTTVDLKMTSLTTEDTATYFCARAYDSGYIGNSFYAFDPWGPGTLVTVSS
VL: DIVMTQTPASVSAAVGGTVTIKCQASQTISSTLAWYQQKPGQPPKLLIYSASTLASGVSSRFKGSGSGPEFTLTISDLESADGGTYTCAGYGTVGVTAFGGGTEVVVR
notes: V regions on human Ig constant parts; also called AB27_103
B5: P018.S.02.A.D04 (antibody, V domains shown)
VH: QEQLVESGGGLVQPEGSLTLTCTASALSFYSAWICWVRQAPGKGLKWIACIYAGGSRSTYYATWATGRFTISEASSTTVTLQMTSLTAADTATYFCARSLSADTYWNLWGPGTLVTVSS
VL: DVVMTQTPASVEAAVGGTVTIKCQASESISSWLAWYQQKPGQPPKLLIYRASTLESGVPSRFKGSGSGTEFTLTISDLESADAATYYCQNNGGGTSGYTFGGGTEVVVK
notes: V regions on human Ig constant parts; also called AB27_33
B6: P018.S.01.A.A04 (antibody, V domains shown)
VH: QSVEESGGRLVTPGTPLTLTCTVSGFSLSRYWVSWVRQAPGKGLEAIGVIDNGDTAYYASWAKGRFTISKTSSITVDLKMTSLTTEDTATYFCTREGADHSGQDLWGQGTLVTVSS
VL: AAVLTQTPSPVSAAVGGTVTINCQASQSVISNNDLSWYQQKPGQPPKLLIYRASNLASGVPSRFEGSGSGTQFTLTISDLESEDAATYYCQGGYAGIVDRRPFGGGTEVVVK
notes: V regions on human Ig constant parts; also called AB27_1
B7: P018.S.03.A.C04 (antibody, V domains shown)
VH: QSVEESGGRLVTPGTPLTLTCTVSGVDLSRYAMSWVRQAPGEGLEWIGTIWYSGTTYYASWAKGRFTISKTSSTTVDLKMTSLTAADTATYFCARDPLYVGGNSGSDLWGPGTLVTVSS
VL: DVVMTQTPASVSAAVGGTVTINCQASQSIGSSLAWYQQKPGQRPKLLIYYASTLASGVPSRFSGSGSGTEFTLTISDLESADAATYYCQSNYGAASSSYGAFGGGTEVVVK
notes: V regions on human Ig constant parts; also called AB27_45
B8: P018.S.10.A.H02 (antibody, V domains shown)
VH: QSLEESGGRLVTPGGSLTLTCTVSGIDLSSYAMGWFRQAPGKGLEYIGIIYSSGSTWFANWVKGRFTISKTSTTVDLKMTSLTTEDTATYFCARYSAADHGDKFKLWGQGTLVTVSS
VL: AAVLTQTPSPVSAAVGGTVSISCQSSKNIFDNTRLSWFQQKPGQPPKQLIYGASTLASGVPSRFSGSGSGTQFTLTISGVQSDDAATYYCLGEYSSDSDTSFGGGTEVVVK
notes: V regions on human Ig constant parts; also called AB27_185
B9: P018.S.02.A.B03 (antibody, V domains shown)
VH: QSLEESGGGLVKPGGTLTLTCTASGFSLSSTYMSWVRQAPGKGLEWIGDIYTDGSTYYASWVNGRFTISKTSTTVDLKMTSLTTEDTATYFCARGAAAAYDLWGQGTLVTVSS
VL: AYDMTQTPASVSAAVGGTVTIKCQASQNIYTNLAWYQQKPGQPPKLLIYGVSNLESGVPSRFKGSGSGTQFTLTISGVQSDDAATYYCQQGYSSTNVENAFGGGTEVVVK
notes: V regions on human Ig constant parts; also called AB27_30
B10: P018.S.06.A.C02 (antibody, V domains shown)
VH: QSVEESGGRLVTPGTPLTLTCIVSGIDLSSNAMSWVRQAPGKGLEWIGIIGFAGITYYANWAKGRFTISKTSTTVDLKITSPTTEDTATYFCARAYGDSDGLYNLWGQGTLVTVSS
VL: AQVLTQTASSVSAAVGGTVTISCQSSESVYNNNWLGWFQQKPGQPPKLLIYLASTLASGVPSRFKGSGSGTQFTLTISDLESDDAATYYCQGGYSGNIFAFGGGTEVVVN
notes: V regions on human Ig constant parts; also called AB27_100
B11: P018.S.06.A.H04 (antibody, V domains shown)
VH: QEKLEESGGGLVKPGGSLTLPCTASGFTLSSRYYMCWVRQAPGKGLEWIGCIYAGSLRTWYASWAKGRFTISKTSSTTVTLQMTSLTAADTATYFCARSPGVAASYPELWGPGTLVTVSS
VL: AQVLTQTPSSVAAAVGGTVSISCQSSQSVGNADNLAWYQQKPGQPPNLLIYYAASLASGVPSRFKGSGSGTQFTLTISDLESDDAATYYCGGGYYNSTDTFYTFGGGTEVVVK
notes: V regions on human Ig constant parts; also called AB27_111
B12: P018.S.04.A.B03 (antibody, V domains shown)
VH: QSLEESGGRLVTPGTPLTLTCTASGFSLSSYDMSWVRQAPGKGLEWIGYIWSDGDTDYANWAIGRFTISKTSTTVDLKMTSPTTEDTATYFCARGYTNYDLWGQGTLVTVSS
VL: AAVLTQTPSSVSAAVGGTVTISCQSSQSLYSDPYLSWHQQKPGQPPKRLIYQASTLASGVSSRFKGSGSGTEYTLTISDVQSDDAATYFCQGTYYSDGWYSDFGGGTEVVVK
notes: V regions on human Ig constant parts; also called AB27_67
B13: P018.S.01.A.C02 (antibody, V domains shown)
VH: QSLEESGGDLVQPGASLTLTCTASGLDFISSYMCWVRQAPGKGLEWIGCIAPGGGNTYYATWAKGRFTFSETSSTTVTLQMTSLTAADTATYFCARTYPSIWYFGLWGPGTLVTVSS
VL: DVVMTQTPASVSEPVGGTVTIKCQASQSIGSNLGWYQQKPGQPPKLLIYGASTLASGVSSRFKGSGSGTEFTLTMSDLESADAATYYCQSFYAASSAFGGGTEVVVK
notes: V regions on human Ig constant parts; also called AB27_7
B14: P018.S.01.A.E04 (antibody, V domains shown)
VH: QEQLKESGGGLVTPGGTLTLTCTASGSDISNYGVSWVRQAPGKGLEWIGFINADGGGTWYASWVKGRFTISRTSTTVELKMTSLTTEHTATYFCATYGGGGGHNLWGPGTLVTVSS
VL: AQVLTQTPSSVSAAVGGTVTINCQSSQSVYDNNALAWYQQKPGQPPKLLLYSASRLASGVPSRFKGSGSGTQFTLTISDLESDDAATYYCAAYYGSGDIFAFGGGTEVVVE
notes: V regions on human Ig constant parts; also called AB27_16
B15: P018.S.09.A.E03 (antibody, V domains shown)
VH: QSVEESGGRLVTPGTPLTLTCTASGFSLSSYYMGWVRQAPGKGLEWIGFITSGGSGSTYYASWAKGRFTISKTSTTVDLKMTSLTTEDTATYFCARYGDSFYWALDLWGQGTLVTVSS
VL: AQVLTQTPSSVSAAVGGTVTINCQSSQSVLNNDLSWYQQKPGQPPKLLIYAASTLASGVPSRFKGSGSGTQFTLTINVGQSDDAATYYCQGYFIDVNNPFGGGTEVVVK
notes: V regions on human Ig constant parts; also called AB27_154
B16: P018.S.01.A.C04 (antibody, V domains shown)
VH: QSLEESGGGLVTPGGTLTLTCTASGSDISTYHMGWFRQAPGKGLEYIGFINTGGTTWYASWAKGRFTVSRTSTTVDLLMTSPTTEDTATYFCARYDAGHAFFDLWGPGTLVTVSS
VL: AVVMTQTASPVSAAVGGTVTIKCQASQSIGSSYFSWYQQKPGQPPKLLIYSASTLASGVSSRFKGSGSGTEYTLTISDLESADAATYYCQGYDGDTTTAFFAFGGGTEVVVE
notes: V regions on human Ig constant parts; also called AB27_8

target: T1, CD27 expressed on the cell surface …; assay: cell-based or functional assay
Note: test concentration or dose not given here.

Binder	IL-8, cross-linked by F(ab')2 fragment [abs. corr.]	IL-8 [abs. corr.]
B1	1.46 abs. corr.	0.455 abs. corr.
B2	1.19 abs. corr.	-0.16 abs. corr.
B3	1.51 abs. corr.	0.123 abs. corr.
B4	1.06 abs. corr.	0.444 abs. corr.
B5	1.37 abs. corr.	0.569 abs. corr.
B6	1.03 abs. corr.	0.236 abs. corr.
B7	1.48 abs. corr.	0.394 abs. corr.
B8	2.1 abs. corr.	1.57 abs. corr.
B9	1.16 abs. corr.	0.12 abs. corr.
B10	1.61 abs. corr.	0.519 abs. corr.
B11	1.69 abs. corr.	0.173 abs. corr.
B12	1.97 abs. corr.	0.394 abs. corr.
B13	1.48 abs. corr.	0.395 abs. corr.
B14	1.15 abs. corr.	0.264 abs. corr.
B15	1.54 abs. corr.	0.099 abs. corr.
B16	1.08 abs. corr.	0.383 abs. corr.

target: T1, CD27 expressed on the cell surface …; assay: cellular binding assay, HT1080_CD27 cells

Binder	Cellular binding assay [RFU]
B1	308 RFU
B2	256 RFU
B3	227 RFU
B4	394 RFU
B5	390 RFU
B6	315 RFU
B7	337 RFU
B8	144 RFU
B9	332 RFU
B10	283 RFU
B11	331 RFU
B12	338 RFU
B13	324 RFU
B14	295 RFU
B15	334 RFU
B16	368 RFU

target: T2, CD27 protein (His-tagged, Sino …); assay: ELISA on coated His-tagged CD27

Binder	ELISA [abs. corr.]
B1	3.25 abs. corr.
B2	3.25 abs. corr.
B3	3.28 abs. corr.
B4	3.28 abs. corr.
B5	3.27 abs. corr.
B6	3.24 abs. corr.
B7	3.52 abs. corr.
B8	3.25 abs. corr.
B9	3.25 abs. corr.
B10	3.23 abs. corr.
B11	3.23 abs. corr.
B12	3.28 abs. corr.
B13	3.25 abs. corr.
B14	3.28 abs. corr.
B15	3.27 abs. corr.
B16	3.24 abs. corr.
